Measurements taken from publication PMC9371924, “Exploration of DNA processing features unravels novel properties of ICE conjugation in Gram-positive bacteria”.
Where a chain is given by its changes, count along the chain named.

Experiments:
[1] = molecular target: T1, RelSt3 (MOBT relaxase) (Streptococcus thermophilus (ICESt3)) (UniProt Q935T7); experiment: EMSA; settings: PAGE EMSA: 20 mM Tris-HCl (pH not stated), 500 mM NaCl, 100 ug/ml salmon sperm DNA, 0.11 uM DNA, 15 min 37 C, gel run at 4 C; agarose EMSA: 400 ng DNA in …
T1 sequence: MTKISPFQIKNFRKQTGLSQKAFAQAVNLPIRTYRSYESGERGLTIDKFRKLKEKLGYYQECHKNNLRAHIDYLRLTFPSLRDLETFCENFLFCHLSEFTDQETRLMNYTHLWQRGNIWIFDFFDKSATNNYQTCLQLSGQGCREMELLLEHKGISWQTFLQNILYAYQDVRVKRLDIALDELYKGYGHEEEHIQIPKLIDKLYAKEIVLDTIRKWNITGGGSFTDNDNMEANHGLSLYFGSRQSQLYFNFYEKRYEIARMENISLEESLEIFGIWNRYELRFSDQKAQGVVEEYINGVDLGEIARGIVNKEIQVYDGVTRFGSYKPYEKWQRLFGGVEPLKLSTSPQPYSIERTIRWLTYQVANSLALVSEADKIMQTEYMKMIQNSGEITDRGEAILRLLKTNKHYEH

[2] = molecular target: T2, RelSt3 (MOBT relaxase) (Streptococcus thermophilus (ICESt3)) (UniProt Q935T7); experiment: EMSA; settings: PAGE EMSA: 20 mM Tris-HCl (pH not stated), 500 mM NaCl, 100 ug/ml salmon sperm DNA, 0.11 uM DNA, 15 min 37 C, gel run at 4 C; agarose EMSA: 400 ng DNA in …; remark: listed apart in the source
T2 sequence: T1 sequence with N28S, E61G, A128V, E190D, N229D, N297T, S324A, R333E

[3] = molecular target: T3, RelSt3 (MOBT relaxase) (Streptococcus thermophilus (ICESt3), UniProt Q935T7 1-410); experiment: EMSA; PAGE EMSA: 20 mM Tris-HCl (pH not stated), 500 mM NaCl, 100 ug/ml salmon sperm DNA, 0.11 uM DNA, 15 min 37 C, gel run at 4 C; agarose EMSA: 400 ng DNA in 20 ul, 15 min 37 C; settings: protein: recombinant, tags: N-terminal 6xHis-TEV (pSKB3), label: 5' 6-FAM, blunt
T3 sequence: T1 sequence with N28S, E61G, A128V, E190D, N229D, N297T, S324A, R333E

[4] = molecular target: T3, RelSt3 (MOBT relaxase); experiment: EMSA; up to 6.4 uM; PAGE EMSA: 20 mM Tris-HCl (pH not stated), 500 mM NaCl, 100 ug/ml salmon sperm DNA, 0.11 uM DNA, 15 min 37 C, gel run at 4 C; agarose EMSA: 400 ng DNA in 20 ul, 15 min 37 C; settings: protein: recombinant; tags: N-terminal 6xHis-TEV (pSKB3); label: 5' 6-FAM; blunt
[5] = molecular target: T3, RelSt3 (MOBT relaxase); experiment: EMSA; data not shown; PAGE EMSA: 20 mM Tris-HCl (pH not stated), 500 mM NaCl, 100 ug/ml salmon sperm DNA, 0.11 uM DNA, 15 min 37 C, gel run at 4 C; agarose EMSA: 400 ng DNA in 20 ul, 15 min 37 C; settings: protein: recombinant; tags: N-terminal 6xHis-TEV (pSKB3); label: 5' 6-FAM; blunt
[6] = molecular target: T4, RelSt3(64-410), HTH deleted (Streptococcus thermophilus (ICESt3), UniProt Q935T7 64-410); experiment: EMSA; up to 1.75 uM; PAGE EMSA: 20 mM Tris-HCl (pH not stated), 500 mM NaCl, 100 ug/ml salmon sperm DNA, 0.11 uM DNA, 15 min 37 C, gel run at 4 C; agarose EMSA: 400 ng DNA in 20 ul, 15 min 37 C; settings: protein: recombinant; tags: N-terminal 6xHis-TEV (pSKB3); label: 5' 6-FAM; blunt; possible cruciform
T4 sequence: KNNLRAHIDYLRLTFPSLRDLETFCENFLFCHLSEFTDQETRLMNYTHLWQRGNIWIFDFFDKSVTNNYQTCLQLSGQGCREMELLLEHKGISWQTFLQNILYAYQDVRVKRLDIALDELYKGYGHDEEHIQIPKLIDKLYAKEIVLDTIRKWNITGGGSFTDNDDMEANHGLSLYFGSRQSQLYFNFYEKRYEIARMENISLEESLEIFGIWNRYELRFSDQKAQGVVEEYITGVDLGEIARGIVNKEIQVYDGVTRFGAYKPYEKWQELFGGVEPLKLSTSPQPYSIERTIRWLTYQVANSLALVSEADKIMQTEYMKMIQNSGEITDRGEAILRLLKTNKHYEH

[7] = molecular target: T3, RelSt3 (MOBT relaxase); experiment: EMSA; apparent Kd; PAGE EMSA: 20 mM Tris-HCl (pH not stated), 500 mM NaCl, 100 ug/ml salmon sperm DNA, 0.11 uM DNA, 15 min 37 C, gel run at 4 C; agarose EMSA: 400 ng DNA in 20 ul, 15 min 37 C; settings: protein: recombinant; tags: N-terminal 6xHis-TEV (pSKB3); label: 5' 6-FAM; blunt; possible cruciform
[8] = molecular target: T5, RelSt3 R32A-R35A (Streptococcus thermophilus (ICESt3), UniProt Q935T7 1-410, R32A;R35A); experiment: EMSA; up to 6.4 uM; PAGE EMSA: 20 mM Tris-HCl (pH not stated), 500 mM NaCl, 100 ug/ml salmon sperm DNA, 0.11 uM DNA, 15 min 37 C, gel run at 4 C; agarose EMSA: 400 ng DNA in 20 ul, 15 min 37 C; settings: protein: recombinant; tags: N-terminal 6xHis-TEV (pSKB3); label: 5' 6-FAM; blunt; possible cruciform
T5 sequence: T1 sequence with N28S, R32A, R35A, E61G, A128V, E190D, N229D, N297T, S324A, R333E

## AAAAAGAATTCTGTTCATCATGGGCTAGGACAAGGGCAAGGACAAGCCTGACCACAGGTCAGGCGCAGACCGTAGCCCGAAGTTCCTAGGCCATGATGAGACTTCAACCCCCGATTTCTAATAGGGGGGTTACATTTGGCCAAAGTGCCACGTCCACCCCTCCTCATTCCTTGTGGGAGTTGGGATTTCAAGATTTAGAAAGTGTGTCACTTTGGTCCAAAAAGTGTGTCACTTAGTCAAAAGGAGGTGTTCCCATGAATGACTAAAATAAGTCCCTTTCAGATCAAGGGCCCTTTTT (double strand) [oriT1 PCR product]
[1]
  binding: binds

## GAGACTTCAACCCCCGATTTCTAATAGGGGGGTTACATTTTCAAGATTTAGAAAGTGTGTCACTTTGGTCCAAAAAGTGTGTCACTTAGTCAAAAGGAG / CTCCTTTTGACTAAGTGACACACTTTTTGGACCAAAGTGACACACTTTCTAAATCTTGA [ori50 (ss nic region + ds IR2)]
[2]
  Kd: 3.2 µM

B1: ori41M11 (IR2 replaced by IR of same length and GC%) (dsDNA)
DNA 1: TCAAGATTTAGACGATACGCTATCGTGGTCCAAACGATACGCTATCGAGTCAAAAGGAG
DNA 2: CTCCTTTTGACTCGATAGCGTATCGTTTGGACCACGATAGCGTATCGTCTAAATCTTGA
[3]; possible hairpin
  binding result: no binding

B2: non-specific dsDNA (dsDNA)
DNA 1: CTTACCGATAAGAACTTACCGCTCCTATGAATCTGGGGAAAGAGGTCTGACCATTGACAAGTTTCGAAAACTCAAAGAAAAGC
DNA 2: GCTTTTCTTTGAGTTTTCGAAACTTGTCAATGGTCAGACCTCTTTCCCCAGATTCATAGGAGCGGTAAGTTCTTATCGGTAAG
[4]
  binding result: no binding

B3: ori41M5 (IR2a mutated) (dsDNA)
DNA 1: TCAAGATTTAGACGATACGCTGACGTGGTCCAAAAAGTGTGTCACTTAGTCAAAAGGAG
DNA 2: CTCCTTTTGACTAAGTGACACACTTTTTGGACCACGTCAGCGTATCGTCTAAATCTTGA
[3]
  binding result: no binding

B4: ori47 (IR1-IR2 spacer) (dsDNA)
DNA 1: ACATTTGGCCAAAGTGCCACGTCCACCCCTCCTCATTCCTTGTGGGAGTTGGGATTTCAAGATTTAGA
DNA 2: TCTAAATCTTGAAATCCCAACTCCCACAAGGAATGAGGAGGGGTGGACGTGGCACTTTGGCCAAATGT
[5]
  binding result: no binding

B5: ori46 (IR1, nic site) (dsDNA)
DNA 1: GAGACTTCAACCCCCGATTTCTAATAGGGGGGTTACAT
DNA 2: ATGTAACCCCCCTATTAGAAATCGGGGGTTGAAGTCTC
[4]
  binding result: no binding

B6: ori41M6 (IR2b mutated) (dsDNA)
DNA 1: TCAAGATTTAGAAAGTGTGTCACTTTGGTCCAAACGATACGCTGACGAGTCAAAAGGAG
DNA 2: CTCCTTTTGACTCGTCAGCGTATCGTTTGGACCAAAGTGACACACTTTCTAAATCTTGA
[3]
  binding result: no binding

B7: ori41 (ori41WT) dsDNA, full IR2 (dsDNA)
DNA 1: TCAAGATTTAGAAAGTGTGTCACTTTGGTCCAAAAAGTGTGTCACTTAGTCAAAAGGAG
DNA 2: CTCCTTTTGACTAAGTGACACACTTTTTGGACCAAAGTGACACACTTTCTAAATCTTGA
[6]
  binding result: no binding
[7]
  Kd: ~1.6 µM
[8]
  binding result: no binding
